This note sets out measurements from patent publication US20130315910A1 (Xencor, published 2013).

The target in assay [1] is T1, human FcγRIIb receptor protein (R&D Systems) (human, UniProt P31994 46-217).
T1 construct: Bought protein injected over captured antibody in Biacore; also called CD32b
T1 sequence (looked up): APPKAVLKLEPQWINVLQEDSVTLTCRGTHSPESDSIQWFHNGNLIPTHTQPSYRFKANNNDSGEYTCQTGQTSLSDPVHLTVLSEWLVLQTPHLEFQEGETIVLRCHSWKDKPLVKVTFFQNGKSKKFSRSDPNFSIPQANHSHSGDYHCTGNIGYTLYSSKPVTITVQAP
Description: SPR.

Assay [2] addresses T2, human FcγRI receptor protein (R&D Systems) (human, UniProt P12314 16-288).
T2 construct: also called soluble FcγRI; solFcγRI
Description: SPR.

Assay [3] deals with T3, human FcγRIIa (131R), His- and GST-tagged (human, UniProt P12318 34-217).
T3 construct: Expressed in HEK293T cells, purified by nickel chromatography; also called R131 FcγRIIa; not shown: 6xHis and GST tags of the pTT5 vector
T3 sequence (looked up): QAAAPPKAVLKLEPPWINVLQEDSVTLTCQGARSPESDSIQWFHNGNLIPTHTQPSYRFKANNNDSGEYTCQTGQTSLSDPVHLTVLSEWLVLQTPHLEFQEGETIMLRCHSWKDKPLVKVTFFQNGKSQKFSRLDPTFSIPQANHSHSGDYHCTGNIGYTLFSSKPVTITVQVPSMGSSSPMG
Nature of the assay: SPR.

In assay [4] the target is T4, human FcγRIIa (131H), His- and GST-tagged (human, UniProt P12318 34-217).
T4 construct: also called H131 FcγRIIa; HIIa; not shown: 6xHis and GST tags of the pTT5 vector
T4 sequence (looked up): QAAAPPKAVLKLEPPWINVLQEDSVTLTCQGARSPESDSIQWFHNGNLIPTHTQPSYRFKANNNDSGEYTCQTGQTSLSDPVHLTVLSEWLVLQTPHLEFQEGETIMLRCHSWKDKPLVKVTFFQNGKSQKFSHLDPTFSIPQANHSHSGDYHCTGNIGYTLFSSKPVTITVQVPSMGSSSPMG
Description: SPR.

Assay [5] deals with T5, human FcγRIIIa (158V), His- and GST-tagged (human, UniProt P08637 17-208).
T5 construct: also called V158 FcγRIIIa; VIIIa; not shown: 6xHis and GST tags of the pTT5 vector
T5 sequence (P08637 17-208 F176V): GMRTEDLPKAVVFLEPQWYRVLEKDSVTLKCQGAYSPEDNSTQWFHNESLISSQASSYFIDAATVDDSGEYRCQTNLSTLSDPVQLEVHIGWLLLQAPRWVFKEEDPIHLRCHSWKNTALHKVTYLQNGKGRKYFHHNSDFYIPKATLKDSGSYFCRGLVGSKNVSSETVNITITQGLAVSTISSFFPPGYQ
Nature of the assay: SPR.

For assay [6], the target named is T6, mFcγRIIb (Mus musculus, UniProt P08101).
T6 construct: extracellular region, C-terminal His- and GST-tag; also called mouse FcγRII
T6 sequence (receptor extracellular region, looked up): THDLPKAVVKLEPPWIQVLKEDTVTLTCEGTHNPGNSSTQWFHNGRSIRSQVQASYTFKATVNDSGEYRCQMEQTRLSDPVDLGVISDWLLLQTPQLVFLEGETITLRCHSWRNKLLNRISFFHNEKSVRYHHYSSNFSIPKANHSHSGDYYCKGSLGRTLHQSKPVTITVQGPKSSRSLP
Description: SPR.

In assay [7] the target is T7, mFcγRIV.
T7 construct: also called mouse FcγRIV; not shown: C-terminal His and GST tags (named only on our card)
T7 chain: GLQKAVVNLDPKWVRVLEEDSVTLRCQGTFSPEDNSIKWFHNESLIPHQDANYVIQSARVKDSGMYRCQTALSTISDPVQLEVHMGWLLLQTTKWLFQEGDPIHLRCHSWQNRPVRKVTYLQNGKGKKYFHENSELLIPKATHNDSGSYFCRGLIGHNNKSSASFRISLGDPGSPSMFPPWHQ
Description: SPR.

Assay [8] concerns the target T8, cynoFcγRIIIa (Macaca fascicularis, UniProt Q8SPW2).
T8 construct: extracellular region, C-terminal His- and GST-tag; also called cynomolgus monkey FcγRIIIa
Description: SPR.

The target in assay [9] is T9, cynoFcγRIIb (Macaca fascicularis, UniProt A0A140HDP4).
T9 construct: extracellular region, C-terminal His- and GST-tag; also called cynomolgus monkey FcγRIIb
T9 sequence (receptor extracellular region): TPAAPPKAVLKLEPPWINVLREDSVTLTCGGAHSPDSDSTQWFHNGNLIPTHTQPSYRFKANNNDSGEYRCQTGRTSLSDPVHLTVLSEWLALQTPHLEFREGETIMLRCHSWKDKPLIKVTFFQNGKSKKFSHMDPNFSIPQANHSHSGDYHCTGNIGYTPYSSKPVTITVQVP
Nature of the assay: SPR, off-rate. The procedure: (§1) Variants were screened for receptor affinity using Biacore™ technology, also referred to as Biacore herein, a surface plasmon resonance (SPR) based technology for studying biomolecular interactions in real time. SPR measurements were performed using a Biacore 3000 instrument (Biacore, Piscataway, N.J.). A protein A/G (Pierce Biotechnology) CM5 biosensor chip (Biacore) was generated using a standard primary amine coupling protocol. All measurements were performed using HBS-EP buffer (10 mM HEPES pH 7.4, 0.15 M NaCl, 3 mM EDTA, 0.005% vol/vol surfactant P20, Biacore). Antibodies at 20 nM or 50 nM in HBS-EP buffer were immobilized on the protein A/G surface and FcγRs were injected. After each cycle, the surface was regenerated by injecting glycine buffer (10 mM, pH 1.5). Data were processed by zeroing time and response before the injection of FcγR and by subtracting appropriate nonspecific signals (response of reference channel and injection of running buffer). Kinetic analyses were performed by global fitting of binding data with a 1:1 Langmuir binding model using BIAevaluation software (Biacore).
(§2) Variant antibodies were tested for their affinity to mouse or cynologous monkey FcγRs using Biacore SPR as described above. Specifically, antibodies were first immobilized on a protein A/G chip to high density, and then followed by injections of the extracellular domain of the mouse or cynologous monkey FcγR of interest. Both association and dissociation phases were tracked in real time using the Biacore technology.

Assay [10] has as its target T6, mFcγRIIb. Description: SPR, off-rate. Here is the method: as §1, §2
The target in assay [11] is T9, cynoFcγRIIb. Nature of the assay: SPR.
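Throughout, for Fold vs WT IgG1 (off-rate): fold improvement over WT IgG1 so higher means slower dissociation than WT.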

T8 sequence (Q8SPW2 17-208): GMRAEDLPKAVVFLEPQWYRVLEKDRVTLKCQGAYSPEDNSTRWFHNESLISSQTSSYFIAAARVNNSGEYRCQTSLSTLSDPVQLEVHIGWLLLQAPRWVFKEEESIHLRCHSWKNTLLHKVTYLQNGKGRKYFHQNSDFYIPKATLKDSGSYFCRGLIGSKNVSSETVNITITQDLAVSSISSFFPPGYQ
T2 sequence (P12314 16-288 limits assumed): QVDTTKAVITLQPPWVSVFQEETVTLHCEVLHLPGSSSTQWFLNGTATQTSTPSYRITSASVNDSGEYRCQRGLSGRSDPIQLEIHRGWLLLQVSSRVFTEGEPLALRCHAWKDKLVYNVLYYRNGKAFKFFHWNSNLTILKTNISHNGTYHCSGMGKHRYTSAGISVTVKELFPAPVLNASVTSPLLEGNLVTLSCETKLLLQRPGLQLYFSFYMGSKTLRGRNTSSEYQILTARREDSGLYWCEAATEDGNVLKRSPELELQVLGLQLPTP

B1: A327N (antibody, human IgG1, kappa)
heavy: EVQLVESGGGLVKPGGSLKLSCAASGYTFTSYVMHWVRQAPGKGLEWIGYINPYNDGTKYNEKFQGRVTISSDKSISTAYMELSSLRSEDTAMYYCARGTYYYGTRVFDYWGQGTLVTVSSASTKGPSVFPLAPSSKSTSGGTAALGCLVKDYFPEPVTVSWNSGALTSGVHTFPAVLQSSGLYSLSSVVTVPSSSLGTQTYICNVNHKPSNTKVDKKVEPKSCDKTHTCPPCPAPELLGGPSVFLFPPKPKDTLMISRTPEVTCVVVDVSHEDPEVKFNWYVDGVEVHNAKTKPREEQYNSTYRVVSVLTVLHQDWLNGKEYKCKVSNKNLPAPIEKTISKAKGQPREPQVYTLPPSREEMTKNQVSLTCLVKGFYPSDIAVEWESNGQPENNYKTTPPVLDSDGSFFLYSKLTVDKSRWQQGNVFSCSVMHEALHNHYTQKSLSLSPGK
light: DIVMTQSPATLSLSPGERATLSCRSSKSLQNVNGNTYLYWFQQKPGQSPQLLIYRMSNLNSGVPDRFSGSGSGTEFTLTISSLEPEDFAVYYCMQHLEYPITFGAGTKLEIKRTVAAPSVFIFPPSDEQLKSGTASVVCLLNNFYPREAKVQWKVDNALQSGNSQESVTEQDSKDSTYSLSSTLTLSKADYEKHKVYACEVTHQGLSSPVTKSFNRGEC
notes: HuAM4G7 anti-CD19 IgG1 (m1) with this Fc substitution, EU index; copies: 2 + 2
As for B1, the “Fold vs WT IgG1” value in assay [1] amounted to 0.843 fold; in assay [2] it was 0.0279 fold; in assay [3] it was 0.609 fold. In addition, the Kd in assay [1] was determined as 1740 nM; in assay [2] it was 11.8 nM; in assay [3], 1410 nM. Also, the binding result in [4], in [5] and in [9] was “no binding” throughout. Also, the “Fold vs WT IgG1 (off-rate)” value in assay [6] came out at 0.643 fold; in assay [7], 1.16 fold; in [8], 0.313 fold.

B2: A327Q (antibody, human IgG1, kappa)
heavy: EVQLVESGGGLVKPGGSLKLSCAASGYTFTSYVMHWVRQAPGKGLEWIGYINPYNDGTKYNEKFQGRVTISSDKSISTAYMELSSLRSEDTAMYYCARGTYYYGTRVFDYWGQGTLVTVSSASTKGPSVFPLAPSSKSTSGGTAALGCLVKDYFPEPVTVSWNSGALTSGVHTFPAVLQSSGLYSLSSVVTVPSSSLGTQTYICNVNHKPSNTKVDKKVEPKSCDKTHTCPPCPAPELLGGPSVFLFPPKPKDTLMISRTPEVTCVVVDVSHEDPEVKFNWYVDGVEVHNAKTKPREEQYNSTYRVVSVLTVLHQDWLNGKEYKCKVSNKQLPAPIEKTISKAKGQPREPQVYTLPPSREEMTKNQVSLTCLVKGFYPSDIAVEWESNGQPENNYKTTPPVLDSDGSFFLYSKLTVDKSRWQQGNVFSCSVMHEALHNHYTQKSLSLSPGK
light: DIVMTQSPATLSLSPGERATLSCRSSKSLQNVNGNTYLYWFQQKPGQSPQLLIYRMSNLNSGVPDRFSGSGSGTEFTLTISSLEPEDFAVYYCMQHLEYPITFGAGTKLEIKRTVAAPSVFIFPPSDEQLKSGTASVVCLLNNFYPREAKVQWKVDNALQSGNSQESVTEQDSKDSTYSLSSTLTLSKADYEKHKVYACEVTHQGLSSPVTKSFNRGEC
notes: as for B1
For B2, the “Fold vs WT IgG1” value in assay [1] turned out to be 0.011 fold; in [3], 0.634 fold. Further, the equilibrium dissociation constant (Kd) in assay [1] amounted to 134000 nM; in assay [3], 1350 nM. Further, the “Fold vs WT IgG1 (off-rate)” value is 0.361 fold in assay [7] and 0.223 fold in assay [8]. The binding result in assay [10] and in assay [9] was “no binding” throughout.

B3: L235F/S267E (antibody, human IgG1, kappa)
heavy: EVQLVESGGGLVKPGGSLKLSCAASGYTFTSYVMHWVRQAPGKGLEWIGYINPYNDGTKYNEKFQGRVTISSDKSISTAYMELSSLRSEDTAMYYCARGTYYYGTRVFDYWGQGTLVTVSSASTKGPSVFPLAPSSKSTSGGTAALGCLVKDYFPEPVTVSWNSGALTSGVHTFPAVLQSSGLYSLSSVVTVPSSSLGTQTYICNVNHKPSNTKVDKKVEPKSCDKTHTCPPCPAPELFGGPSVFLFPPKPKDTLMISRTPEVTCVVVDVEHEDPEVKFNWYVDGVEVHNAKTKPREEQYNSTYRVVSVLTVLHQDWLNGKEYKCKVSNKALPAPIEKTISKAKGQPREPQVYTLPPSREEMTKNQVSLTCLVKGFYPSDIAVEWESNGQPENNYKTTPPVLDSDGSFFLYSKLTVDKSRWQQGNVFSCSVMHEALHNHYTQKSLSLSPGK
light: DIVMTQSPATLSLSPGERATLSCRSSKSLQNVNGNTYLYWFQQKPGQSPQLLIYRMSNLNSGVPDRFSGSGSGTEFTLTISSLEPEDFAVYYCMQHLEYPITFGAGTKLEIKRTVAAPSVFIFPPSDEQLKSGTASVVCLLNNFYPREAKVQWKVDNALQSGNSQESVTEQDSKDSTYSLSSTLTLSKADYEKHKVYACEVTHQGLSSPVTKSFNRGEC
notes: HuAM4G7 anti-CD19 IgG1 (m1) with these Fc substitutions, EU index; copies: 2 + 2
For B3, the “Fold vs WT IgG1” value in assay [1] is 28.4 fold; in assay [2], 0.0176 fold; in [3], 32.5 fold; in [4], 0.402 fold. The Kd in [1] came out at 51.7 nM; in [2], 18.7 nM; in assay [3], 26.4 nM; in assay [4] it was 1610 nM. Further, the binding result in assay [5] and in assay [10] was “no binding” each time. For the same molecule, the “Fold vs WT IgG1 (off-rate)” value was 0.515 fold in assay [7], 1.39 fold in assay [11] and 0.255 fold in [8].

B4: anti-CD19 antibody HuAM4G7 IgG1 S267G (antibody)
heavy: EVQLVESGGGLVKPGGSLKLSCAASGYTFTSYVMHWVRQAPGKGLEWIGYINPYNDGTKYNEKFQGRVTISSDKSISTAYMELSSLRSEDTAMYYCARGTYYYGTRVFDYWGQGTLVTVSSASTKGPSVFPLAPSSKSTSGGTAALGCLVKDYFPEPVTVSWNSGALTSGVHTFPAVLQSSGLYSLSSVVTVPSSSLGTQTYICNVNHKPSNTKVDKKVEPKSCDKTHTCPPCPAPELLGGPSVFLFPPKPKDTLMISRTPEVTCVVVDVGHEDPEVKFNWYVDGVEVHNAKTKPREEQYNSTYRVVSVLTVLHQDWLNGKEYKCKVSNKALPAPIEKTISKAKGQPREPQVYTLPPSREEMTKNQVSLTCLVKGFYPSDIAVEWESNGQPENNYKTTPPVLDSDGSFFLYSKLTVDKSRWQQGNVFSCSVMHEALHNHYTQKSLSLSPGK
light: DIVMTQSPATLSLSPGERATLSCRSSKSLQNVNGNTYLYWFQQKPGQSPQLLIYRMSNLNSGVPDRFSGSGSGTEFTLTISSLEPEDFAVYYCMQHLEYPITFGAGTKLEIKRTVAAPSVFIFPPSDEQLKSGTASVVCLLNNFYPREAKVQWKVDNALQSGNSQESVTEQDSKDSTYSLSSTLTLSKADYEKHKVYACEVTHQGLSSPVTKSFNRGEC
notes: Positions in EU numbering; copies: 2 + 2
With B4, the Kd turned out to be 1450 nM in assay [1], 0.626 nM in assay [2] and 517 nM in [3]. Besides, the binding result in assay [10] and in assay [9] was “no binding” each time.

B5: L234F (antibody, human IgG1, kappa)
heavy: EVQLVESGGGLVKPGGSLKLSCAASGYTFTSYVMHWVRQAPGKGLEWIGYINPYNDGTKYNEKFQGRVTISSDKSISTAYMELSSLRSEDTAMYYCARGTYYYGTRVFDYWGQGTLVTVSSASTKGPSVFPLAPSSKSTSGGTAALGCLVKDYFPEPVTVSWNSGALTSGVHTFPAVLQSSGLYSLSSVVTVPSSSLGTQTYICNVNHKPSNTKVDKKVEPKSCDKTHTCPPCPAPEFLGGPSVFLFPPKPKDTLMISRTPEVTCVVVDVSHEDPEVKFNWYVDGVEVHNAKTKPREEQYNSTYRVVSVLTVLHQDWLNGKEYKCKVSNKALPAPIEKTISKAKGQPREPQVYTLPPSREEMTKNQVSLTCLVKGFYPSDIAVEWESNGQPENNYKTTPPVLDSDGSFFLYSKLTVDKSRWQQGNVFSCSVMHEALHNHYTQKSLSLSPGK
light: DIVMTQSPATLSLSPGERATLSCRSSKSLQNVNGNTYLYWFQQKPGQSPQLLIYRMSNLNSGVPDRFSGSGSGTEFTLTISSLEPEDFAVYYCMQHLEYPITFGAGTKLEIKRTVAAPSVFIFPPSDEQLKSGTASVVCLLNNFYPREAKVQWKVDNALQSGNSQESVTEQDSKDSTYSLSSTLTLSKADYEKHKVYACEVTHQGLSSPVTKSFNRGEC
notes: as for B1
Turning to B5, the “Fold vs WT IgG1” value in [1] was 0.409 fold; in [2] it was 0.0362 fold; in assay [3], 0.228 fold. Besides, the Kd in assay [1] amounted to 3590 nM; in assay [2], 9.11 nM; in assay [3] it was 3760 nM. Further, the binding result in assay [4], in assay [5] and in [10] was “no binding” each time. Further, the “Fold vs WT IgG1 (off-rate)” value in assay [7] was found to be 0.144 fold; in assay [11], 0.936 fold; in [8], 0.561 fold.

B6: V266M (antibody, human IgG1, kappa)
heavy: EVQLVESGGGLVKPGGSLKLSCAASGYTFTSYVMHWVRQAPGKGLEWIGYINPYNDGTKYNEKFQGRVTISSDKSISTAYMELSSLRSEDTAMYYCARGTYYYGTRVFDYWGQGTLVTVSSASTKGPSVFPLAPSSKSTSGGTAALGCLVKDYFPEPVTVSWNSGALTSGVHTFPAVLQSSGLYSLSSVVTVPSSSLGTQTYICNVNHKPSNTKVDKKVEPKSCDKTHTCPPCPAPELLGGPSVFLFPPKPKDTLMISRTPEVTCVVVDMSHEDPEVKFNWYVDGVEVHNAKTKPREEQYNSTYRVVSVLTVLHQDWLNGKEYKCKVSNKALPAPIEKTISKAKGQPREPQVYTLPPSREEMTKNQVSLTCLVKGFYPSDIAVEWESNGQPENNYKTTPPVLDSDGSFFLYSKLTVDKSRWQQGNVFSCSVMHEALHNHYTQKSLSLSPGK
light: DIVMTQSPATLSLSPGERATLSCRSSKSLQNVNGNTYLYWFQQKPGQSPQLLIYRMSNLNSGVPDRFSGSGSGTEFTLTISSLEPEDFAVYYCMQHLEYPITFGAGTKLEIKRTVAAPSVFIFPPSDEQLKSGTASVVCLLNNFYPREAKVQWKVDNALQSGNSQESVTEQDSKDSTYSLSSTLTLSKADYEKHKVYACEVTHQGLSSPVTKSFNRGEC
notes: as for B1
For the molecule B6, the “Fold vs WT IgG1” value in [1] came to 1.91 fold; in [2], 1.25 fold; in assay [3], 3.13 fold; in assay [4], 1.17 fold; in assay [5] it was 0.547 fold. The Kd in [1] stood at 770 nM; in assay [2], 0.264 nM; in assay [3], 274 nM; in assay [4] it was 553 nM; in [5], 350 nM. In addition, the “Fold vs WT IgG1 (off-rate)” value in [6] worked out at 2.04 fold; in [8] it was 0.433 fold. Moreover, the binding result in [9] is given as “no binding”.

B7: L234N (antibody, human IgG1, kappa)
heavy: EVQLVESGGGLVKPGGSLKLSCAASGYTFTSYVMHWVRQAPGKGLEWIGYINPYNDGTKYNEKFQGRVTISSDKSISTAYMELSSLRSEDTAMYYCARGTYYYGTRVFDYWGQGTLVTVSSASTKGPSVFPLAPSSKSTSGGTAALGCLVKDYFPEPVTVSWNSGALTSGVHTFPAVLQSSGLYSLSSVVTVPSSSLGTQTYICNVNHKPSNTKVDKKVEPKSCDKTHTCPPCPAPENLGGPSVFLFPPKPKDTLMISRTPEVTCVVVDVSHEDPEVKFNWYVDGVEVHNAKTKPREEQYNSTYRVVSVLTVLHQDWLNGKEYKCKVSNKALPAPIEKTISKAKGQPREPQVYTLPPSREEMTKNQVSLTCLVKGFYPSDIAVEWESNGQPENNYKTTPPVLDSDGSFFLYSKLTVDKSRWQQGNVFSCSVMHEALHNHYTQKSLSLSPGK
light: DIVMTQSPATLSLSPGERATLSCRSSKSLQNVNGNTYLYWFQQKPGQSPQLLIYRMSNLNSGVPDRFSGSGSGTEFTLTISSLEPEDFAVYYCMQHLEYPITFGAGTKLEIKRTVAAPSVFIFPPSDEQLKSGTASVVCLLNNFYPREAKVQWKVDNALQSGNSQESVTEQDSKDSTYSLSSTLTLSKADYEKHKVYACEVTHQGLSSPVTKSFNRGEC
notes: as for B1
Regarding B7, the binding result in assay [1], in assay [3], in assay [10] and in assay [9] was “no binding” throughout. Moreover, the “Fold vs WT IgG1 (off-rate)” value in [7] amounted to 0.2 fold; in assay [8] it was 0.371 fold.
